T1: GST-Pex3ΔN (aa 41–455, cytosolic domain) (P. pastoris, UniProt Q92262 41-455)
T1 sequence (looked up): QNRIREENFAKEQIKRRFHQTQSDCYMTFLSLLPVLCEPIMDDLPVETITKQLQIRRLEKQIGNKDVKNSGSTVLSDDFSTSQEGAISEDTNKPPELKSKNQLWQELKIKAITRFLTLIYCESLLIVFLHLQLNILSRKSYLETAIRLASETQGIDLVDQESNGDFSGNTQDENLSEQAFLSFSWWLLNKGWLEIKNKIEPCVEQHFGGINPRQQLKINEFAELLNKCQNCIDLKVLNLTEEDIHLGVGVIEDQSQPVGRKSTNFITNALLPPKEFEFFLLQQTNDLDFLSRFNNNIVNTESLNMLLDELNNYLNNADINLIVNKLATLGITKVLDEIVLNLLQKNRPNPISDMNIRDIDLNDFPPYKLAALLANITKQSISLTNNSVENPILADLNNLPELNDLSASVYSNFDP


Target: T1, GST-Pex3ΔN (aa 41–455, cytosolic domain)
Experiment: pull-down

Binder | binding result
His-Atg37ΔC (WT) (domain or fragment, P. pastoris, UniProt C4R8D7 1-278, looked up) MSESIDRVFVKAIGTIRTLSSRTGYGGLPRPPIENRVKLYGLYKQATEGDVAGVMERPLGDSPEAEAAKRKWDAWRSEQGTSKTEAKRQYISYLIDTMKQFASDTTEARELLSELEYLWNQISDVSPNDSSDSESNAGPAQLLQNHAQLLSRDISVVDDPITSSGMDPMYNPSFQRHNSSRFINASTAERLNSLSNYYSNLNPTPPLSSRRYQGSVTPRNVDFIKWQNDINNSINKLNHDLQLLANRRLQSSASDPLYSKRGSDLTHDDFVNDISSSS | binds
His-Atg37ΔC acbs mutant (Y40F K44A) (domain or fragment, P. pastoris, UniProt C4R8D7 1-278, looked up) MSESIDRVFVKAIGTIRTLSSRTGYGGLPRPPIENRVKLFGLYAQATEGDVAGVMERPLGDSPEAEAAKRKWDAWRSEQGTSKTEAKRQYISYLIDTMKQFASDTTEARELLSELEYLWNQISDVSPNDSSDSESNAGPAQLLQNHAQLLSRDISVVDDPITSSGMDPMYNPSFQRHNSSRFINASTAERLNSLSNYYSNLNPTPPLSSRRYQGSVTPRNVDFIKWQNDINNSINKLNHDLQLLANRRLQSSASDPLYSKRGSDLTHDDFVNDISSSS | binds

— article PMC3926955 (The Journal of Cell Biology, 2014)
